From PMC4363072

Biological target: GST-BS69_(50-401) FW point mutant (F293A, W294A) (human) (UniProt Q15326)
Assay: MST

GST-BS69_(50-401) FW point mutant (F293A, W294A) (human), sequence (Q15326 50-401 F293A/W294A): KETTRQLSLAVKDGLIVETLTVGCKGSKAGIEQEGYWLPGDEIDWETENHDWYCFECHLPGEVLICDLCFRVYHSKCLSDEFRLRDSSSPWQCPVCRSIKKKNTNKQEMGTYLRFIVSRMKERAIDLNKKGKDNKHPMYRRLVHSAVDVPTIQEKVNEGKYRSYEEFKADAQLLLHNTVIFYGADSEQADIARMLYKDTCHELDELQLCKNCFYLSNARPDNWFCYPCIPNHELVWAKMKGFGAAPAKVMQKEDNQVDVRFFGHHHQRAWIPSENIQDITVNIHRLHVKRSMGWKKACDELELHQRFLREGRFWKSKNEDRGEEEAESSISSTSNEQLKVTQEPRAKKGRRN

Kd: 277 µM
Substance: H3.3K36me3 peptide
